# Measurements taken from the nanobody polyreactivity screen of Harvey et al. (2022).
# Assay: yeast display, Sf9 membrane polyspecificity reagent, FACS + sequencing; frameworks hold sequencing errors
# How it was run: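 Sorting gates, low and high (top ~1%), were placed on anti-HA fluorescence to track expression and on streptavidin fluorescence to track reagent binding. A clone's polyreactivity label is taken from the gate it came out of. The reagent was 10% biotinylated, detergent-solubilized Sf9 membrane, applied for 1 hour at 4 °C to galactose-induced yeast display cells.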
row,Sequence,polyreactivity (PSR sort gate)
1,QVQIVESGGGLVQAGGSRRFSCAASGGTFNWNAMGWYRQAPGKERELFAAINRTGGSTYYADSVKARFTISRDNAMNTVYLQMNSLKPEDTAVYYCAKRYYRFYLGWPPEDSWGQGTQVSVSS,low polyreactivity
2,QFQLVESGGGLVQAGGSLRLSCAASGFTFPGYALGWSTQAPGKERELVAAINSSGGRTYYADSVKWRFTISRDNAKYTVYLQMNSLKPEDTEVYYCGATRWYIRARYNYWGHGTQVTVSS,high polyreactivity
3,QVQLVESGGGLVQAGGSLRLSCAASGRIFVHNAMGWYSQARGKERELVAAINSGGSTNYADSVKGRFTISRDNANKTVYLQMNSLKPEDTAVYYCAAYWYPYPDAFEYYNYGYWGQGTQVTVSS,high polyreactivity
4,QDQLVESGGGLDQAGGSLRLSCAASGRTFRKYAMGWYSQAPGKERELVAAITTSGARTYYADSVKGRFTISRDNAKNTVYLQMNILKPDDTAVYYCNAVSPYDGIEFDYWGLGTQVTVSS,high polyreactivity
5,QVQLVESGGGLVQAGGSLRLSCAASGRIFNVYDMGRYRQAPGKERELVAAISSGANTNYADSVKGRFTISRDNAKNTVYLQMNSLKPEDTAVYYCNTEQFYDYDYTFDYWGQGTQVTVSS,low polyreactivity
6,QVQLVDSGGGLVQAGGSLRLSCAASGGIFYHNAMGWYRQAPGKERELVAAISGRGGRTYYADSVKGRFTISRDNAKNTVYLQMNSLKPEDTAVYYCYADQYKDFDYWGQGTQVTVSS,low polyreactivity
7,QVQLVESGGGLVHAGGSLRLSCAASGSIFTVNAMGWYRQAPGKERELVAAIDGSSGSTNYADSEKGRFTISRDNAKNTVYLQMNSLKPEDTAVYYCAADWSYEYGYWGQGTQVTVSS,low polyreactivity
8,QVQLVESGGGLVQAGGSLRLSCAASGRIFSVYAMGWYRQAPGKEREFVASISWRGGRTYYADSVKGRFTISRDNAKNTVYLQMNSLKPEDTAVYYCNAPQRYWPPYGYWGQGTQVTVSS,high polyreactivity
9,QVQLVESGGGLVQAGGSLRLSCAASGITIYGNAMGWYRQAPGKERELVAAITFSGGITYYADSVKGRFTISRDNAKNTVYLQMNSLKPEDTAVYYCATDPIGGWTRPQRYGDDYWGQGTQVTVSS,low polyreactivity
10,QVQLVESGGGLVQAGGSLRLSCAATGRIFGSNAMGWYRQAPGKEREVVAAITRGGSTNYADSVKGRFTISRDNAKNTVYLQMNSLKPEDTAVYYCAVRWYRKYNFWGQGTQVTVSS,high polyreactivity
11,QVQLVESGGGLVQAGGSLRLSCAASGFILAYYAMGWYRQAPGKERELVAAISIGSSTDYADSVKGRFTISRDNAKNTVYLQMNSLKPEDTAVYYCAATYVYWTWGYDYWGQGTQVTVSS,low polyreactivity
12,QVQLVESGGGLVQAGGSLRLSCAASGRNILVYAMGWYRQAPGKERELVAAISSGGSTYYADSVKGRFTISRDNAKNTVYLQMNSLKPEDTAVYYCAAQFDVYYSRQPYDYNRSGYWGQGTQVTVSS,low polyreactivity
13,QVQLVESGGGLVQAGGSLRLSCAASGRILSFYVMGWYRQAPGKERELVAAIRRGGSTYYADSVKGRFTISRDNAKNTVYLQMNSLKPEDTAVYYCNARQRPPPYYYWGQGTQVTVSS,high polyreactivity
14,QVQLVESGGGLVQAGGSLRLSCAASGRIFDLNVMGWYRQAPGKERELVAAIRSGGRTNYADSVKGRFTISRDNAKNTVYLQMNSLKPEDTAVYYCNVRRGYWHPGYGWANYDYWGQGTQVTVSS,high polyreactivity
15,QVQLVESGGGLVQAGGSLRLSCAASGRIIDIYAMGWYRQAPGKERELVAAITSGGSTYYADSVKGRFTISRDNAKNTVYLQMNSLKPEDTAVYYCAARLFADYWGQGTQVTVSS,low polyreactivity
16,QVQLVESGLGLVQAGGSLRLSCAASGSTFYLYTMGWYRQAPGKERELVAAITYSGGRTYYADSVKGRFTISRDNAKNTVYLQMNSLKPEDTAVYYCAARRLPRPWTSTSDYWGQGTQVTVSS,high polyreactivity
17,QVQLVESGGGLVQAGGSLRLSCAASGRIFTPYAMGWYRQAPGKEREFVATISFRGDSTYYADSVKGRFTISRDNAKNTVYLQMNSLKPEDTAVYYCNAATNRRTSDYWGQGTQVTVSS,high polyreactivity
18,QVQLVESGGGLVQAGGSLLLSCAASGSIFPYYAMGMYRQAPGKERELVAAITDGGSTNYADSVKGRFTISRDNAKNTFYLQMNSLKQEDTAVYYCNKLPGYYDYDYWGQGTQVTVSS,low polyreactivity
19,QVQLVESGGGLVKAGGSLRLSCAASGGIFYRNSMGWYRQAPGKERELVAAISWRGGSTYYADSVKGRFTISRDNAKNTVYLQMNSLKPEDTAVYYCAARSVATYRYDYWGQGTQVTVSS,high polyreactivity
20,QVQLVESGGGLVQAGGSLRLSCAASGFTFAPYAMGWYRQAPGKERELVATIRSSGGRTYYADSVKGRFTISRDNAKNTVYLQMNSLKPEDTAVYYCAATGVYTKNPRGMDYWGQGTKVTVSS,high polyreactivity
21,QVQLVESGGGLVQAGGSLRLSCAASGFTFRHNTMGWYRQAPGKERELVAAISIGGRTYYADSVKGRFTISRDNAKNTVYLQMNSLKTEDSAVYYCANLSGGQSPGYDYWGQGTQVTVSW,high polyreactivity
22,QVQLVESGGGLVQAGGSLRLICAASGLIFYRYAMGWYRPEPGKERELVAVISRGGSTFYADSVKGRFTISRDNAKNTVYLQMNSLTPEDTAVYFCAAAQTSQAYRYWYYYWGQGTQVTVSW,high polyreactivity
23,QVQLVESGGGLVQAGGSLRLICADYGRTFKWYAMGWYRQAPGKERELVAVITGLGGSTYYADSVKGRFTISRDNAKNTVYLQMKSLKPEDTAVYYCAARGYSHVASRLYYYWGQGNQVTVSS,high polyreactivity
24,QVQLVESGGGLDQAGGSLRLSCAASGITFTRNAMGWYRQAPGKERELVAAITKSGGGTYYADSVKGRFTISRDNAKNTVYLQMNSLKPEDTAVYYCAAYTDKYGDYNYWGQGTLVTVSS,high polyreactivity
25,QVQLVESGGGLVQAGGSLRLSCDASGSIFQAYAIGWYRQAPGKEREFVAVITWGGGSTSYADSVKGRFTISRDNAKNTVYLQMNSLKPEDTAVYYCNADSQEWIWLYEGYDYWGQGTQVTVSS,low polyreactivity
26,QVQLVESGGGLVQAGGSLRLSCAASGFTFDYYAMGWYRQAPGKERELVAAINWSGAITYYADSVKGRFTISRDNAKNTVYLQMNSLKPEDTAVYYCAARWGKFYGRFYWGMDYWGQGTQVTVSS,high polyreactivity
27,QVHLVESGGGLVQAGGSLRLSCAASGFIFRSYAMGWYRQAPGKEREFVAAITTRGTGTYYADSVKGRFTISRDNEKNTFYLQMNSLKPEDTAVYYCAARRGWGDDYWGQGTQVTVSS,high polyreactivity
28,QVQLVESGGGLVQAGGSLRLSCAASGLTFVWYGMGWYRQAPGKERELVAAITRGGSTYYADSVKGRFTISRDNAKNTVYLQMNSLKPEDTAVYYCAARYKYTGYDYWGQGTQVTVSS,high polyreactivity
29,QVQLVESGGGLVQAGGSLRLSCAASGRTFQWYAMGWYRQAPGKERELVAAITSGGNTYYADSVKGRFTISRDNAKNTVYLQMNSLKPEDTAVYYCFLFYSRSMGYWGQGTQVTVSS,high polyreactivity
30,QVQLVESGGGLVQAGGSLRLSCAASGRIFASYAMGWYRQAPGKERELVAAINSNGGSKYYADSVKGRFTISRDNAKNTVYLQMNSLKPEDTAVYYCAAGARYKMGYWGQGTQVTVSS,high polyreactivity
